Assay results from publication PMC8912257 (Cell Host & Microbe, 2022).
Where no end group is shown, it is not given here. [ ]: non-standard residue; d: D form. pY = N[C@@H](Cc1ccc(OP(=O)(O)O)cc1)C(=O)O

T1: Full-length STAT1 protein (unphosphorylated, U-STAT1) (UniProt P42224 1-750)
T1 construct: also called STAT1 FL
T1 sequence (looked up): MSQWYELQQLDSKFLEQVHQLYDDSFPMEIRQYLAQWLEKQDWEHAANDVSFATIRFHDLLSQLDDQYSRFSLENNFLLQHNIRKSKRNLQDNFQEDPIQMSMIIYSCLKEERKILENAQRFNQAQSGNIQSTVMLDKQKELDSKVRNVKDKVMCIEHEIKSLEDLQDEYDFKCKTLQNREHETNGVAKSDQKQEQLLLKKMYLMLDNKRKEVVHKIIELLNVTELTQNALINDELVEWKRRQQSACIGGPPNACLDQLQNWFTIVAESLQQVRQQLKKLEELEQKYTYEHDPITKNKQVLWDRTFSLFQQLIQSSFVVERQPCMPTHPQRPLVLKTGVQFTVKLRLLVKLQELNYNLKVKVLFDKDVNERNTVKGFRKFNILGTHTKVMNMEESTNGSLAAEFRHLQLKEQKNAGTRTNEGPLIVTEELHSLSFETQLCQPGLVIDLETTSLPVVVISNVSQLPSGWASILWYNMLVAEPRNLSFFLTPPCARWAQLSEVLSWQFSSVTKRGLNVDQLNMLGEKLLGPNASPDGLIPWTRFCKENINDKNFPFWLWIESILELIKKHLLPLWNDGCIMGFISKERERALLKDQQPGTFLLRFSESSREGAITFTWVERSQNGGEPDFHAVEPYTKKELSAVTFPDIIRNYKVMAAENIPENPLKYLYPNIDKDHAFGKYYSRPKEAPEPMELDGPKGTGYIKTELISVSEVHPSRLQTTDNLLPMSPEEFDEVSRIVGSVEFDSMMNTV

T2: Full-length STAT1 protein (unphosphorylated) (human, UniProt P42224 1-750)
T2 construct: also called U-STAT1; pEXP-nHis-STAT1
T2 sequence (looked up): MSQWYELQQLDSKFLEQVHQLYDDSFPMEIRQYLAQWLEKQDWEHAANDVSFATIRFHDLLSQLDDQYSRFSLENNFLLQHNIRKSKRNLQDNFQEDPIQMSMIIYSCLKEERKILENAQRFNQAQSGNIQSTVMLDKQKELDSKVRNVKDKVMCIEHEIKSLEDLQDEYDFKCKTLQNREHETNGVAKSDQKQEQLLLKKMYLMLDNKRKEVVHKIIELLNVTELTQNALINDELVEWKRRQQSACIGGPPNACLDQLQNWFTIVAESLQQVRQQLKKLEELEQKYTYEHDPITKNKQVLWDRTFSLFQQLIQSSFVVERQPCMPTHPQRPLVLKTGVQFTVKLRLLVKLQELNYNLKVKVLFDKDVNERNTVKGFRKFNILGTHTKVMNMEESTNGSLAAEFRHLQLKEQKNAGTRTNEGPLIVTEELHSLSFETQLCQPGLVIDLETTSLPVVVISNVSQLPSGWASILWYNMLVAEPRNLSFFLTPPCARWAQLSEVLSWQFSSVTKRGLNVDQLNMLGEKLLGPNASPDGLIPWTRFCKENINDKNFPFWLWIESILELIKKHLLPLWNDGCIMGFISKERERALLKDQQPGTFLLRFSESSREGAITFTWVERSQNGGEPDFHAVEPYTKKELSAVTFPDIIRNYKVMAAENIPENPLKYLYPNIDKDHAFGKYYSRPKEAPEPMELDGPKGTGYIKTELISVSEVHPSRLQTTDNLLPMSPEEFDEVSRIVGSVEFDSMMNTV


Assays:
Conditions in all cases: both partners purified
[1] = target: T1, Full-length STAT1 protein …; assay: ITC
[2] = target: T2, Full-length STAT1 protein …; assay: ITC
[3] = target: T2, Full-length STAT1 protein …; assay: fluorescence polarisation

| Binder | stoichiometry N [1] | Kd [2] [nM] | IC50 [3] [nM] | stoichiometry N [2] |
| --- | --- | --- | --- | --- |
| MWSVFIHGHDGSNKGSKTYTS (domain or fragment) [GB1-018^T2 (minimal fragment of 018, aa 11-31, fused to GB1)] | 1.01 | – | – | – |
| MWSVFIHGHDGSNKGSK (domain or fragment) [GB1-018^T3 (018^T2 without the C-terminal 28-TYTS-31, fused to GB1)] | 1 | – | – | – |
| Ac-[pY]DKPH-NH2 (SMILES CC(=O)N[C@@H](Cc1ccc(OP(=O)(O)O)cc1)C(=O)N[C@@H](CC(=O)O)C(=O)N[C@@H](CCCCN)C(=O)N1CCC[C@H]1C(=O)N[C@@H](Cc1c[nH]cn1)C(N)=O, also called pIFNGR 5-mer) [pIFNGR1 5-mer peptide (Ac-pYDKPH-NH2)] | 0.708 | – | – | – |
| Ac-MWSVFIHGHDGSNKGSKTYTS-NH2 [018 21-mer peptide (Ac-MWSVFIHGHDGSNKGSKTYTS-NH2)] | 1.09 | – | – | – |
| Ac-MWSVFIHGHDGSNKGSKT[pY]TS-NH2 [018 phospho 21-mer peptide (Ac-MWSVFIHGHDGSNKGSKT(pY)TS-NH2)] | 1.12 | – | – | – |
| MWSVFIHGHDGSNKGSK (domain or fragment) [GB1-018^T3] | – | > 10000 | 17800 | – |
| GB1-018 (natural protein) MSSKGGSSGGMWSVFIHGHDGSNKGSKTYTSGGGGMWGGGSSSGVKSGVNGGVKSGTGKI | – | 291 | 1260 | 1.02 |
| MWSVFIHGHDGSNKGSKTYTS (domain or fragment) [GB1-018^T2] | – | 235 | 930 | – |
| MWSVFIHGHDGSNKGSKTYTS (also: phospho, position not given here) [018 phospho 21-mer peptide] | – | 174 | – | – |
| MWSVFIHGHDGSNKGSKTYTS [018 21-mer peptide] | – | 321 | – | – |
